Experimental data taken from the supplement of paper PMC11246515.
± gives the standard deviation of the averaged measurements.

Assay: total protein half-life in vivo (active degradation + dilution); higher = more stable protein
[1] = E. coli NCM3722 delta-clpP delta-lon delta-hslV, growth: N-lim chemostat, doubling time 6 h
[2] = E. coli NCM3722 delta-clpP, growth: N-lim chemostat, doubling time 6 h
[3] = E. coli NCM3722 delta-hslV, growth: N-lim chemostat, doubling time 6 h
[4] = E. coli NCM3722 delta-lon, growth: N-lim chemostat, doubling time 6 h
[5] = E. coli NCM3722 delta-smpB, growth: N-lim chemostat, doubling time 6 h
[6] = wild type E. coli NCM3722, growth: C-lim chemostat, doubling time 3 h
[7] = wild type E. coli NCM3722, growth: C-lim chemostat, doubling time 6 h
[8] = wild type E. coli NCM3722, growth: C-lim chemostat, doubling time 12 h
[9] = wild type E. coli NCM3722, growth: N-lim chemostat, doubling time 6 h
[10] = wild type E. coli NCM3722, growth: N-lim chemostat, doubling time 12 h
[11] = wild type E. coli NCM3722, growth: P-lim chemostat, doubling time 6 h
[12] = wild type E. coli NCM3722, growth: P-lim chemostat, doubling time 12 h

Sequence	total protein half-life in vivo [1] [h]	total protein half-life in vivo [2] [h]	total protein half-life in vivo [3] [h]	total protein half-life in vivo [4] [h]	total protein half-life in vivo [5] [h]	total protein half-life in vivo [6] [h]	total protein half-life in vivo [7] [h]	total protein half-life in vivo [8] [h]	total protein half-life in vivo [9] [h]	total protein half-life in vivo [10] [h]	total protein half-life in vivo [11] [h]	total protein half-life in vivo [12] [h]
MKWLCSVGIAVSLALQPALADDLFGNHPLTPEARDAFVTELLKKMTVDEKIGQLRLISVGPDNPKEAIREMIKDGQVGAIFNTVTRQDIRAMQDQVMELSRLKIPLFFAYDVLHGQRTVFPISLGLASSFNLDAVKTVGRVSAYEAADDGLNMTWAPMVDVSRDPRWGRASEGFGEDTYLTSTMGKTMVEAMQGKSPADRYSVMTSVKHFAAYGAVEGGKEYNTVDMSPQRLFNDYMPPYKAGLDAGSGAVMVALNSLNGTPATSDSWLLKDVLRDQWGFKGITVSDHGAIKELIKHGTAADPEDAVRVALKSGINMSMSDEYYSKYLPGLIKSGKVTMAELDDAARHVLNVKYDMGLFNDPYSHLGPKESDPVDTNAESRLHRKEAREVARESLVLLKNRLETLPLKKSATIAVVGPLADSKRDVMGSWSAAGVADQSVTVLTGIKNAVGENGKVLYAKGANVTSDKGIIDFLNQYEEAVKVDPRSPQEMIDEAVQTAKQSDVVVAVVGEAQGMAHEASSRTDITIPQSQRDLIAALKATGKPLVLVLMNGRPLALVKEDQQADAILETWFAGTEGGNAIADVLFGDYNPSGKLPMSFPRSVGQIPVYYSHLNTGRPYNADKPNKYTSRYFDEANGALYPFGYGLSYTTFTVSDVKLSAPTMKRDGKVTASVQVTNTGKREGATVVQMYLQDVTASMSRPVKQLKGFEKITLKPGETQTVSFPIDIEALKFWNQQMKYDAEPGKFNVFIGTDSARVKKGEFELL	6.82 ± 0.31	6.82 ± 0.92	6.51 ± 0.073	6.84 ± 0.088	5.91 ± 0.13	3.14 ± 0.092	6.17 ± 0.12	14.2 ± 1.2	6.21 ± 0.43	13.9 ± 0.67	6.21 ± 0.027	14.5 ± 1.1
MTQYWLGLDCGGSWLKAGLYDREGREAGVQRLPLCALSPQPGWAERDMAELWQCCMAVIRALLTHSGVSGEQIVGIGISAQGKGLFLLDKNDKPLGNAILSSDRRAMEIVRRWQEDGIPEKLYPLTRQTLWTGHPVSLLRWLKEHEPERYAQIGCVMMTHDYLRWCLTGVKGCEESNISESNLYNMSLGEYDPCLTDWLGIAEINHALPPVVGSAEICGEITAQTAALTGLKAGTPVVGGLFDVVSTALCAGIEDEFTLNAVMGTWAVTSGITRGLRDGEAHPYVYGRYVNDGEFIVHEASPTSSGNLEWFTAQWGEISFDEINQAVASLPKAGGDLFFLPFLYGSNAGLEMTSGFYGMQAIHTRAHLLQAIYEGVVFSHMTHLNRMRERFTDVHTLRVTGGPAHSDVWMQMLADVSGLRIELPQVEETGCFGAALAARVGTGVYHNFSEAQRDLRHPVRTLLPDMTAHQLYQKKYQRYQHLIAALQGFHARIKEHTL	–	–	–	–	–	–	4.05 ± 1.2	7.19 ± 1.2	–	–	–	–
MFRQLKKNLVATLIAAMTIGQVAPAFADSADTLPDMGTSAGSTLSIGQEMQMGDYYVRQLRGSAPLINDPLLTQYINSLGMRLVSHANSVKTPFHFFLINNDEINAFAFFGGNVVLHSALFRYSDNESQLASVMAHEISHVTQRHLARAMEDQQRSAPLTWVGALGSILLAMASPQAGMAALTGTLAGTRQGMISFTQQNEQEADRIGIQVLQRSGFDPQAMPTFLEKLLDQARYSSRPPEILLTHPLPESRLADARNRANQMRPMVVQSSEDFYLAKARTLGMYNSGRNQLTSDLLDEWAKGNVRQQRAAQYGRALQAMEANKYDEARKTLQPLLAAEPGNAWYLDLATDIDLGQNKANEAINRLKNARDLRTNPVLQLNLANAYLQGGQPQEAANILNRYTFNNKDDSNGWDLLAQAEAALNNRDQELAARAEGYALAGRLDQAISLLSSASSQVKLGSLQQARYDARIDQLRQLQERFKPYTKM	4.342 ± 0.022	5.12 ± 1.1	4.86 ± 0.098	4.52 ± 0.32	4.35 ± 0.05	2.7 ± 0.2	5.08 ± 0.19	9.19 ± 1.1	4.73 ± 0.033	8.19 ± 1.1	3.46 ± 0.47	7.12 ± 1.7
MLKPDNLPVTFGKNDVEIIARETLYRGFFSLDLYRFRHRLFNGQMSHEVRREIFERGHAAVLLPFDPVRDEVVLIEQIRIAAYDTSETPWLLEMVAGMIEEGESVEDVARREAIEEAGLIVKRTKPVLSFLASPGGTSERSSIMVGEVDATTASGIHGLADENEDIRVHVVSREQAYQWVEEGKIDNAASVIALQWLQLHHQALKNEWA [Q93K97]	–	4.47 ± 0.8	4.6 ± 0.65	4.759 ± 0.044	4.63 ± 0.46	3.05 ± 0.36	5.79 ± 0.16	11 ± 0.82	4.23 ± 0.34	7.1411 ± 0.0014	5.98 ± 0.42	12.9 ± 0.41
MKNRTLGSVFIVAGTTIGAGMLAMPLAAAGVGFSVTLILLIGLWALMCYTALLLLEVYQHVPADTGLGTLAKRYLGRYGQWLTGFSMMFLMYALTAAYISGAGELLASSISDWTGISMSATAGVLLFTFVAGGVVCVGTSLVDLFNRFLFSAKIIFLVVMLVLLLPHIHKVNLLTLPLQQGLALSAIPVIFTSFGFHGSVPSIVSYMDGNIRKLRWVFIIGSAIPLVAYIFWQVATLGSIDSTTFMGLLANHAGLNGLLQALREMVASPHVELAVHLFADLALATSFLGVALGLFDYLADLFQRSNTVGGRLQTGAITFLPPLAFALFYPRGFVMALGYAGVALAVLALIIPSLLTWQSRKHNPQAGYRVKGGRPALVVVFLCGIAVIGVQFLIAAGLLPEVG [P0AAD4]	–	–	–	–	6.48	–	–	–	–	–	–	–
MITRDFLMNADCKTAFGAIEESLLWSAEQRAASLAATLACRPDEGPVWIFGYGSLMWNPALEFTESCTGTLVGWHRAFCLRLTAGRGTAHQPGRMLALKEGGRTTGVAYRLPEETLEQELTLLWKREMITGCYLPTWCQLDLDDGRTVNAIVFIMDPRHPEYESDTRAQVIAPLIAAASGPLGTNAQYLFSLEQELIKLGMQDDGLNDLLVSVKKLLAENFPDGVLRPGFA	5.67 ± 0.14	–	–	–	–	–	–	–	–	–	–	–
MLYGFSGVILQGALVTLELAISSVVLAVIIGLIGAGGKLSQNRLSGLIFEGYTTLIRGVPDLVLMLLIFYGLQIALNTVTEAMGVGQIDIDPMVAGIITLGFIYGAYFTETFRGAFMAVPKGHIEAATAFGFTRGQVFRRIMFPSMMRYALPGIGNNWQVILKSTALVSLLGLEDVVKATQLAGKSTWEPFYFAIVCGVIYLVFTTVSNGVLLFLERRYSVGVKRADL	5.69 ± 0.1	6.04 ± 0.29	–	6.66 ± 0.46	5.85 ± 0.34	3.09 ± 0.16	5.6235 ± 0.0025	11.5 ± 2.1	6.17 ± 0.47	12.8 ± 2.3	5.65 ± 0.36	11.2 ± 2.3
MAIPKLQAYALPESHDIPQNKVDWAFEPQRAALLIHDMQDYFVSFWGENCPMMEQVIANIAALRDYCKQHNIPVYYTAQPKEQSDEDRALLNDMWGPGLTRSPEQQKVVDRLTPDADDTVLVKWRYSAFHRSPLEQMLKESGRNQLIITGVYAHIGCMTTATDAFMRDIKPFMVADALADFSRDEHLMSLKYVAGRSGRVVMTEELLPAPIPASKAALREVILPLLDESDEPFDDDNLIDYGLDSVRMMALAARWRKVHGDIDFVMLAKNPTIDAWWKLLSREVK [P0ADI4]	6.06 ± 2.3	2.48	1.47	–	1.73 ± 0.48	2.18 ± 0.18	3.32 ± 0.47	5.74 ± 0.72	–	4.49	–	5.51
MPEGPEIRRAADNLEAAIKGKPLTDVWFAFPQLKPYQSQLIGQHVTHVETRGKALLTHFSNDLTLYSHNQLYGVWRVVDTGEEPQTTRVLRVKLQTADKTILLYSASDIEMLTPEQLTTHPFLQRVGPDVLDPNLTPEVVKERLLSPRFRNRQFAGLLLDQAFLAGLGNYLRVEILWQVGLTGNHKAKDLNAAQLDALAHALLEIPRFSYATRGQVDENKHHGALFRFKVFHRDGEPCERCGSIIEKTTLSSRPFYWCPGCQH	5.54 ± 0.6	5.55 ± 0.23	6.197 ± 0.018	6.19 ± 0.85	4.38 ± 0.63	2.36 ± 0.55	–	9.48	5.45	11 ± 0.57	–	7.33
MLEEYRKHVAERAAEGIAPKPLDANQMAALVELLKNPPAGEEEFLLDLLTNRVPPGVDEAAYVKAGFLAAIAKGEAKSPLLTPEKAIELLGTMQGGYNIHPLIDALDDAKLAPIAAKALSHTLLMFDNFYDVEEKAKAGNEYAKQVMQSWADAEWFLNRPALAEKLTVTVFKVTGETNTDDLSPAPDAWSRPDIPLHALAMLKNAREGIEPDQPGVVGPIKQIEALQQKGFPLAYVGDVVGTGSSRKSATNSVLWFMGDDIPHVPNKRGGGLCLGGKIAPIFFNTMEDAGALPIEVDVSNLNMGDVIDVYPYKGEVRNHETGELLATFELKTDVLIDEVRAGGRIPLIIGRGLTTKAREALGLPHSDVFRQAKDVAESDRGFSLAQKMVGRACGVKGIRPGAYCEPKMTSVGSQDTTGPMTRDELKDLACLGFSADLVMQSFCHTAAYPKPVDVNTHHTLPDFIMNRGGVSLRPGDGVIHSWLNRMLLPDTVGTGGDSHTRFPIGISFPAGSGLVAFAAATGVMPLDMPESVLVRFKGKMQPGITLRDLVHAIPLYAIKQGLLTVEKKGKKNIFSGRILEIEGLPDLKVEQAFELTDASAERSAAGCTIKLNKEPIIEYLNSNIVLLKWMIAEGYGDRRTLERRIQGMEKWLANPELLEADADAEYAAVIDIDLADIKEPILCAPNDPDDARPLSAVQGEKIDEVFIGSCMTNIGHFRAAGKLLDAHKGQLPTRLWVAPPTRMDAAQLTEEGYYSVFGKSGARIEIPGCSLCMGNQARVADGATVVSTSTRNFPNRLGTGANVFLASAELAAVAALIGKLPTPEEYQTYVAQVDKTAVDTYRYLNFNQLSQYTEKADGVIFQTAV	5.12 ± 0.25	3.86 ± 0.1	3.56 ± 0.021	3.3 ± 0.063	2.96 ± 0.046	2.579 ± 0.021	4.71 ± 0.057	7.2 ± 0.21	3.578 ± 0.02	4.92 ± 0.14	3.56 ± 0.094	5.84 ± 0.098
MQFSTTPTLEGQTIVEYCGVVTGEAILGANIFRDFFAGIRDIVGGRSGAYEKELRKAREIAFEELGSQARALGADAVVGIDIDYETVGQNGSMLMVSVSGTAVKTRR [P0A8C1]	4.49 ± 0.27	4.01 ± 0.34	3.9 ± 0.47	4.39 ± 0.13	4.26 ± 0.15	2.918 ± 0.013	5.49 ± 0.17	10.2 ± 3.2	3.84 ± 0.47	6.45 ± 0.22	5.53 ± 0.24	12.2 ± 0.14
MRNFDLSPLYRSAIGFDRLFNHLENNQSQSNGGYPPYNVELVDENHYRIAIAVAGFAESELEITAQDNLLVVKGAHADEQKERTYLYQGIAERNFERKFQLAENIHVRGANLVNGLLYIDLERVIPEAKKPRRIEIN [P0C054]	–	3.11 ± 0.15	1.47 ± 0.1	2.83 ± 0.24	1.35 ± 0.082	1.2 ± 0.21	1.83 ± 0.025	1.87 ± 0.3	1.65 ± 0.42	2.7 ± 0.45	1.58 ± 0.077	3.08 ± 0.14
MSQVQFSHNPLFCIDIIKTYKPDFTPRVAFILGSGLGALADQIENAVAISYEKLPGFPVSTVHGHAGELVLGHLQGVPVVCMKGRGHFYEGRGMTIMTDAIRTFKLLGCELLFCTNAAGSLRPEVGAGSLVALKDHINTMPGTPMVGLNDDRFGERFFSLANAYDAEYRALLQKVAKEEGFPLTEGVFVSYPGPNFETAAEIRMMQIIGGDVVGMSVVPEVISARHCDLKVVAVSAITNMAEGLSDVKLSHAQTLAAAELSKQNFINLICGFLRKIA	5.56 ± 0.68	–	–	–	1.93 ± 0.26	2	–	6.43	–	–	2.34	5.82
MKTKLNELLEFPTPFTYKVMGQALPELVDQVVEVVQRHAPGDYTPTVKPSSKGNYHSVSITINATHIEQVETLYEELGKIDIVRMVL [P0A8J4]	3.54 ± 1.3	2.19 ± 0.44	1.24	2.23 ± 0.17	1.42 ± 0.17	2.1	2.72	3.05	1.34	1.54	2.04 ± 0.064	3.43 ± 0.32
